The record followed here is patent EP4669337B1 (ATOPIA THERAPEUTICS SA, dated 2025).

B1: human TGFβ receptor 1 (receptor, UniProt P36897 34-126, looked up)
chain: LQCFCHLCTKDNFTCVTDGLCFVSVTETTDKVIHNSMCIAEIDLIPRDRPFVCAPSSKTGSVTTTYCCNQDHCNKIELPTTVKSSPGLGPVEL
notes: Immobilised on a CM5 sensor by direct amine coupling; also called TGFβ R1; TGF-bR1
B2: polypeptide of SEQ ID NO:31 (a specific polypeptide of SEQ ID NO: 10, s1m1 family VacA-derived polypeptide) (other)
chain: AFFTTVIIPAIVGGIATGTAVGTVSGLLGWGLKQAEEANKTPDKPDKVWRIQAGKGFNEFPNKEYDLYKSLLSSKIDGGWDWGNAATHYWIKGGQWNKLEVDMKDAVGTYKLSGLRNFTGGDLDVNMQKATLRLGQFNGNSFTSYKDSADRTTRVDFNAKNILIDNFLEINNRVGSGAGRKASSTVLTLQASEGITSSKNAEISLYDGATLNLASNSVKLNGNVWMGRLQYVGAYLAPSYSTINTSKVTGEVNFNHLTVGDHNAAQAGIIASNKTHIGTLDLWQSAGLNIIAPPGGKDTVVNIDRINTKADGTIKVGGFKASLTTNAAHLNIGKGGVNLSNQASGRTLLVENLTGNITVDGPLRVNNQVGGYALAGSSANFEFKAGVDTKNGTATFNNDISLGRFVNLKVDAHTANFKGIDTGNGGFNTLDFSGVTNKVNINKLITASTNVAVKNFNINELIVKTNGVSVGEYTHFSEDIGSQSRINTVRLETGTRSIFSGGVKFKSGEKLVIDEFYYSPWNYFDARNIKNVEITRKFASSTPENPWGTSKLMFNNLTLGQNAVMDYSQFSNLTIQGDFINNQGTINYLVRGGKVATLNVGNAAAMMFNNDIDSATGFYKPLIKINSAQDLIKNTEHVLLKAKIIGYGNVSTGTNGISNVNLEEQFKERLALYNNNNRMDTCVVRNTDDIKACGMAIGNQSMVNNPDNYKYLIGKAWKNIGISKTANGSKISVYYLGNSTPTENGGNTTNLPTNTTNNARFASYA
notes: Engineered polypeptide derived from the H. pylori VacA s1m1 family, expressed in CHO or HEK cells and purified

For test [1], the target named is B2. In words: SPR (Biacore T200), TGFβ R1 amine-coupled on CM5, multi-cycle, two-state kinetic model.
In test [2] the target is B2. Kind of test: SPR (Biacore T200), TGFβ R1 amine-coupled on CM5, equilibrium model.
Test [3] deals with T1, human TGFβ receptor 2 (human, UniProt P37173 23-166, limits assumed).
T1 construct: Immobilised on a CM5 sensor by direct amine coupling; also called TGFβ R2; TGFB-R2
T1 sequence (P37173 23-166 limits assumed): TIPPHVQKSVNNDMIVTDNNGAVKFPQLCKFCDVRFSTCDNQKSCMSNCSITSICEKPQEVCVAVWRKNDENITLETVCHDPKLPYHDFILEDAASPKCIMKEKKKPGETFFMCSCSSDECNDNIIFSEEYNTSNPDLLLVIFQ
In words: SPR (Biacore T200), TGFβ R2 amine-coupled on CM5, equilibrium model.

Test [4] deals with T1, human TGFβ receptor 2. Kind of test: SPR (Biacore T200), TGFβ R2 amine-coupled on CM5, multi-cycle, two-state kinetic model.

As for B1, in test [1], the Kd is 2310 nM, the koff worked out at 0.603 s⁻¹ and the kon turned out to be 220000 M⁻¹ s⁻¹. In addition, the Kd in test [2] worked out at 2900 nM.
In turn, B2 displayed a Kd in test [3] of 5.61 µM. In test [4], this molecule returned a Kd of 5.07 µM, a koff of 6670 s⁻¹ and a kon of 1.08e+09 M⁻¹ s⁻¹.
